For one molecule, Kd results are on record in paper doi:10.1101/2024.05.01.592117 (2024).

As a reminder, the Kd is the free concentration of one partner at which half of the binding sites on the other are occupied at equilibrium, for simple one-to-one binding.

The target of experiment [1] is 43S preinitiation complex (40S + eIFs 1, 1A, 5, 3j, eIF2-TC and eIF3) (human, UniProt P23396 1-243; P41567 1-113; P47813 1-144; P55010 1-431; O75822 1-258; P55884 …). Nature of the experiment: FP.
The target in experiment [2] is T1, 40S small ribosomal subunit (salt-washed, purified) (human, UniProt P23396 1-243). Nature of the experiment: FP.
The target of experiment [3] is T1, 40S small ribosomal subunit …. In words: FP; 40S with eIF1 and eIF1A.

B1: fluorescence-labeled Pdcd4-NTD (FL-Pdcd4-NTD, residues 1-156) (domain or fragment)
chain: MDVENEQILNVNPADPDNLSDSLFSGDEENAGTEEIKNEINGNWISASSINEARINAKAKRRLRKNSSRDSGRGDSVSDSGSDALRSGLTVPTSPKGRLLDRRSRSGKGRGLPKKGGAGGKGVWGTPGQVYDVEEVDVKDPNYDDDQENCVYETVV
modifications: fluorescein-5-maleimide on the single cysteine C150
Regarding B1, the Kd was about 3000 nM in experiment [1], about 5 nM in experiment [2] and 71 nM in experiment [3].
